Test results published in article doi:10.1101/2023.09.25.559264.
Changes are numbered by the printed parent chain. Like-named read-outs stand apart in the source and are kept apart here.

Legend:
Assay in all cases: MST
[1] = target: T1, WtIHF (wild-type integration host factor) (E. coli, UniProt P0A6X7;P0A6Y1 1-99;1-94)
[2] = target: T1, WtIHF (wild-type integration host …); remark: listed apart in the source
[3] = target: T1, WtIHF (wild-type integration host …); remark: listed apart in the source

T1 sequence (P0A6X7 whole entry, chain 1 of 2): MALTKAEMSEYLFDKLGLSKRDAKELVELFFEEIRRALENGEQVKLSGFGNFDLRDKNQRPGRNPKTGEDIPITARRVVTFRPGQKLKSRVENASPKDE
T1 sequence (P0A6Y1 whole entry, chain 2 of 2): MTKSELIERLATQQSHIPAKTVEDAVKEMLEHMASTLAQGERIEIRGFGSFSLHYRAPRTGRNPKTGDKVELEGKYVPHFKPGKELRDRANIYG

B1: H'-HJ (structured_DNA)
DNA 1: CCAGACAGCAGTTATCAATTTGTTGGGACGGAGG
DNA 2: CCTTCAACCACCGCTCATGATTACTGCTGTCTGG
DNA 3: CCTCCGTCCCAACAAATGGCTGCTACCGGAAGGG
DNA 4: AAAAACCCTTCCGGTAGCAGCCTGAGCGGTGGTTGAAGG
In the case of B1, the Kd [1] is reported as 2.8 ± 0.5 nM, the Kd [2] is reported as 12 ± 0.89 nM and the Kd [3] is reported as 13.6 ± 2.21 nM.

B2: H1-HJ (structured_DNA)
DNA 1: CCAGACAGCAGTAATCAACTACTTAGGACGGAGG
DNA 2: B1 DNA 2
DNA 3: B1 DNA 3 with C10T, C13G, A14T, A16G
DNA 4: B1 DNA 4
B2 was tested, and the Kd [1] was 11 ± 1.6 nM, the Kd [2] was 7.75 ± 1.1 nM and the Kd [3] was 7.09 ± 0.93 nM.
